In patent publication US20220119534A1 (DRAGONFLY THERAPEUTICS, published 2022):
Numbering of substitutions follows the chain as printed. Names and notes keep the numbering of the source. Values joined by “and” are separate entries in the source; they are usually repeats but may differ in a detail not shown here. Equal values may be shown once. Read-outs that look alike come from different tables or passages of the source.

Columns and labels:
Human CLEC12A-His [1] = target: T1, Human CLEC12A-His (human, UniProt Q5QGZ9 65-265); assay: SPR Biacore 8K 37 C; TriNKET captured on anti-hFc chip, hCLEC12A-His as analyte; 1:1 fit; control sample, n=2
T1 construct: Recombinant soluble protein made in house (Dragonfly Tx); The hCLEC12A spot of the HuProt array is written under this molecule as well; also called hCLEC12A-His; hCLEC12A; not shown: His tag
T1 sequence: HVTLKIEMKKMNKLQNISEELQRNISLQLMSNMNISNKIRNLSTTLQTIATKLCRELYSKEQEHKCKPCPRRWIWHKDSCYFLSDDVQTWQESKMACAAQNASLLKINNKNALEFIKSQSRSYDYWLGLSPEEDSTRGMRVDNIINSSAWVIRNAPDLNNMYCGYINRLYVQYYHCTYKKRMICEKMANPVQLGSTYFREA

mFc-hNKG2D [2] = target: T2, mFc-hNKG2D (human, UniProt P26718 73-216); assay: SPR Biacore 8K 37 C; mFc-hNKG2D captured on anti-mFc chip, TriNKET as analyte; 1:1 kinetic fit; control sample, n=3
T2 construct: extracellular domain; Made in house (Dragonfly Tx); the order of tag and ECD follows the name mFc-hNKG2D; also called mFc-tagged human NKG2D; not shown: mouse Fc tag
T2 sequence (looked up): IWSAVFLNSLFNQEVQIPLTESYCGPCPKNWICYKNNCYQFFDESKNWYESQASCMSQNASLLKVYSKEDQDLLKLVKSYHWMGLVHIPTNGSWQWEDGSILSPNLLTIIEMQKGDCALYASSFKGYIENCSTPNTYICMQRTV

mFc-hNKG2D [3] = target: T2, mFc-hNKG2D; assay: SPR Biacore 8K 37 C; mFc-hNKG2D captured on anti-mFc chip, TriNKET as analyte; 1:1 kinetic fit; un-oxidized control
Method: Association was monitored for 60 seconds and dissociation was monitored for 60 seconds. Surfaces were regenerated between cycles with three pulses of 10 mM glycine-HCl, pH 1.7 injected for 20 seconds at 100 μL/min. HBS-EP+ (1×) buffer was used throughout the experiment. Data were analyzed using Biacore 8K Insight evaluation software (GE Healthcare).

mFc-hNKG2D [4] = target: T2, mFc-hNKG2D; assay: SPR Biacore 8K 37 C; mFc-hNKG2D captured on anti-mFc chip, TriNKET as analyte; 1:1 kinetic fit; control, n=3
Human CLEC12A-His [5] = target: T1, Human CLEC12A-His; assay: SPR Biacore 8K 37 C; TriNKET captured on anti-hFc chip, hCLEC12A-His as analyte; 1:1 fit; control sample, n=2; remark: listed apart in the source
Method: Briefly, human Fc specific antibodies were covalently immobilized at a density ˜8000-10000 resonance units (RU) on carboxy methyl dextran matrix of a CM5 biosensor chip via amine-coupling chemistry to create an anti-hFc IgG chip. […] Association was monitored for 300 seconds and dissociation was monitored for 600 seconds. Surfaces were regenerated between cycles with three pulses of 10 mM glycine-HCl, pH 1.7 injected for 20 seconds at 100 μL/min. HBS-EP+ (1×) with 0.1 mg/mL BSA buffer was used throughout the experiment. Data were analyzed using Biacore 8K Insight evaluation software (GE Healthcare). The kinetic rate constants and overall affinity were obtained using 1:1 kinetic fit binding model (FIGS. 71A-71B).

[6] = target: T3, Human CLEC12A expressed on cells (Ba/F3-hCLEC12A, PL21, HL60) (human, UniProt Q5QGZ9 1-265); assay: cell-based or functional assay
T3 sequence: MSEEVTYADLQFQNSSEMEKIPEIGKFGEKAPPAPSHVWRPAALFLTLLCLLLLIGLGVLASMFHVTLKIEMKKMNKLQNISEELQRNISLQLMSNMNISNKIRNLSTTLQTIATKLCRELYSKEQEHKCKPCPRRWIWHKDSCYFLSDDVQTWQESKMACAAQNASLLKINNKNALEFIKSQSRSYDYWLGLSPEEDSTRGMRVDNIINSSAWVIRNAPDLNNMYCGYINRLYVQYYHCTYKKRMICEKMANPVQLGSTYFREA

[7] = target: T3, Human CLEC12A expressed on cells …; assay: cell-based or functional assay; remark: listed apart in the source
[8] = target: T4, Human CLEC12A-His (recombinant, K244 WT) (human, UniProt Q5QGZ9 65-265); assay: SPR 37C, two-state fit, average
T4 construct: Made in house (Dragonfly Tx); also called hCLEC12A; hCLEC12A-His; not shown: His tag
T4 sequence: T1 sequence

[9] = target: T5, De-glycosylated human CLEC12A (human, UniProt Q5QGZ9 65-265, treated with PNGaseF (N-linked glycans removed)); assay: SPR, two-state fit (ka1)
T5 construct: Same recombinant antigen as m2 after PNGaseF; also called De-glycosylated CLEC12A
T5 sequence: T1 sequence
Method: (§1) Briefly, human Fc specific antibodies were covalently immobilized at a density ˜8000-10000 resonance units (RU) on carboxy methyl dextran matrix of a CM5 biosensor chip via amine-coupling chemistry to create an anti-hFc IgG chip. […] Association was monitored for 300 seconds and dissociation was monitored for 600 seconds. Surfaces were regenerated between cycles with three pulses of 10 mM glycine-HCl, pH 1.7 injected for 20 seconds at 100 μl/min. HBS-EP+ (1×) with 0.1 mg/ml BSA was used as running buffer throughout the experiment. Experiments were performed at physiological temperature of 37° C. To obtain kinetic rate constants and overall binding affinity, double-referenced data were fit to a two-state kinetic model using Biacore 8K Insight Evaluation software (Cytiva).

[10] = target: T6, De-sialylated human CLEC12A (human, UniProt Q5QGZ9 65-265, treated with neuraminidase (terminal sialic acids removed)); assay: SPR, two-state fit (ka1)
T6 construct: Same recombinant antigen as m2 after neuraminidase; also called De-sialylated CLEC12A
T6 sequence: T1 sequence
Method: as §1

Human CD32b (FcγRIIb) = target: T7, Human CD32b (FcγRIIb) (human, UniProt P31994 46-217, limits assumed, biotinylated); assay: SPR 25C, biotinylated CD32b captured
T7 construct: Bought recombinant receptor; also called hFcγRIIb; CD32b (FcγR2b)
T7 sequence (looked up): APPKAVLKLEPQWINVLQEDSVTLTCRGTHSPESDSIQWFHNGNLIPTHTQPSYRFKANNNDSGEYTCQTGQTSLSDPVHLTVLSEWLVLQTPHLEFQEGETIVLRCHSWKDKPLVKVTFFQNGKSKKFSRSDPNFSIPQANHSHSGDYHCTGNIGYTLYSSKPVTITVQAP

mFc-hNKG2D [11] = target: T8, mFc-hNKG2D (human, UniProt P26718 73-216); assay: SPR, 37 C, mFc-hNKG2D captured, kinetic fit
T8 construct: extracellular domain; Recombinant mFc-tagged NKG2D dimer, made in house; also called human NKG2D; not shown: mouse Fc tag
T8 sequence (looked up): T2 sequence (looked up)

Human CD64 = target: T9, Human CD64 (human, UniProt P12314 16-288, biotinylated); assay: SPR, human CD64 captured
T9 construct: Bought recombinant receptor; also called hFcγRI; Human CD64 (FcγRI)

[12] = target: T10, recombinant human CD32a R131 (human, UniProt P12318 36-218, limits assumed, biotinylated); assay: SPR 25C, steady state, average
T10 construct: also called FcγRIIa R131
T10 sequence (looked up): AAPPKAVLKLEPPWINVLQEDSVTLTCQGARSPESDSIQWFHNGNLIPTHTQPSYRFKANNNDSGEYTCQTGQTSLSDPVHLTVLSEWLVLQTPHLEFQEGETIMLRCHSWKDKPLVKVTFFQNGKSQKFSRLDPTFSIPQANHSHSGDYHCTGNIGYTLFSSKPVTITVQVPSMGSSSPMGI

T9 sequence (P12314 16-288 limits assumed): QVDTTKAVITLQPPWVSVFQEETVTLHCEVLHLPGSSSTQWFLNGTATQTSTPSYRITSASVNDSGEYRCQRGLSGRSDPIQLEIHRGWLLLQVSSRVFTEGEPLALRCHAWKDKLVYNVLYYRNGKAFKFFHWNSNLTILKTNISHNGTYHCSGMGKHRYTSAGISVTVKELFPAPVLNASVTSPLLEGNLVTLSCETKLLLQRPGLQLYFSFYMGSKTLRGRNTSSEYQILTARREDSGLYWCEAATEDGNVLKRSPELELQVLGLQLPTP

B1: F3'-1602 TriNKET (bispecific antibody, human IgG1, kappa)
chain: QLQLQESGPGLVKPSETLSLTCTVSGFSLTNYGLHWIRQPPGKCLEWIGVIWSGGKTDYNPSLKSRVTISKDTSKNQFSLKLSSVQAADTAVYYCAKYDYDDSLDYWGQGTLVTVSSGGGGSGGGGSGGGGSGGGGSDIQMTQSPSSLSASVGDRVTITCHASQNINFWLSWYQQKPGKAPKLLIYEASNLHTGVPSRFSGSGSGTRFTLTISSLQPEDIATYYCQQSHSYPLTFGCGTKLEIKGSDKTHTCPPCPAPELLGGPSVFLFPPKPKDTLMISRTPEVTCVVVDVSHEDPEVKFNWYVDGVEVHNAKTKPREEQYNSTYRVVSVLTVLHQDWLNGKEYKCKVSNKALPAPIEKTISKAKGQPREPRVYTLPPCRDELTKNQVSLTCLVKGFYPSDIAVEWESNGQPENNYKTTPPVLVSDGSFTLYSKLTVDKSRWQQGNVFSCSVMHEALHNHYTQKSLSLSPG
heavy: EVQLVESGGGLVKPGGSLRLSCAASGFTFSSYSMNWVRQAPGKGLEWVSSISSSSSYIYYADSVKGRFTISRDNAKNSLYLQMNSLRAEDTAVYYCARGAPIGAAAGWFDPWGQGTLVTVSSASTKGPSVFPLAPSSKSTSGGTAALGCLVKDYFPEPVTVSWNSGALTSGVHTFPAVLQSSGLYSLSSVVTVPSSSLGTQTYICNVNHKPSNTKVDKKVEPKSCDKTHTCPPCPAPELLGGPSVFLFPPKPKDTLMISRTPEVTCVVVDVSHEDPEVKFNWYVDGVEVHNAKTKPREEQYNSTYRVVSVLTVLHQDWLNGKEYKCKVSNKALPAPIEKTISKAKGQPREPQVCTLPPSRDELTENQVSLTCLVKGFYPSDIAVEWESNGQPENNYKTTPPVLDSDGSFFLYSWLTVDKSRWQQGNVFSCSVMHEALHNHYTQKSLSLSPG
light: DIQMTQSPSSVSASVGDRVTITCRASQGISSWLAWYQQKPGKAPKLLIYAASSLQSGVPSRFSGSGSGTDFTLTISSLQPEDFATYYCQQGVSFPRTFGGGTKVEIKRTVAAPSVFIFPPSDEQLKSGTASVVCLLNNFYPREAKVQWKVDNALQSGNSQESVTEQDSKDSTYSLSSTLTLSKADYEKHKVYACEVTHQGLSSPVTKSFNRGEC
notes: Trispecific F3' format: CLEC12A scFv-Fc paired with NKG2D Fab-Fc; Stressed and control samples of the stability studies are the same molecule; also called AB0237
Human CLEC12A-His [1]
  Kd: 1.2 nM
  koff: 0.000933 s⁻¹
  kon: 779000 M⁻¹ s⁻¹
mFc-hNKG2D [2]
  Kd: 661 nM
  koff: 0.139 s⁻¹
  kon: 211000 M⁻¹ s⁻¹
mFc-hNKG2D [3]
  Kd: 750 nM
  koff: 0.107 s⁻¹
  kon: 143000 M⁻¹ s⁻¹
mFc-hNKG2D [4]
  Kd: 714 nM
  koff: 0.146 s⁻¹
  kon: 206000 M⁻¹ s⁻¹
Human CLEC12A-His [5]
  Kd: 1.11 nM
  koff: 0.000873 s⁻¹
  kon: 791000 M⁻¹ s⁻¹

B2: AB0089 TriNKET (bispecific antibody, human IgG1, kappa)
chain: B1 chain with S53V, K56A, K71V, Y98G, D101G, S103T, R207D, I220F
heavy: B1 heavy
light: B1 light
notes: F3' format heterodimer of three chains; human IgG1 Fc with EW-RVT and Y349C/S354C mutations; also called AB0089 Lot AB0089-002; CLEC12A TriNKET AB0089
[6]
  EC50, lysis of PL21 cells by NK cells, with sMIC-A-Fc: 0.26 nM
  EC50, lysis of PL21 cells by NK cells, without sMIC-A-Fc: 0.32 nM
[7]
  EC50, rested NK cell lysis of PL21 cells (mean of six donors): 0.25 nM
[8]
  Kd: 0.74 nM
[9]
  kon: 8.96e+06 M⁻¹ s⁻¹
[10]
  kon: 2.09e+07 M⁻¹ s⁻¹
Human CD32b (FcγRIIb)
  Kd: 7100 nM and 5300 nM and 7400 nM

B3: AB0192 TriNKET (other)
chain: EVQLVESGGGVVQPGGSLRLSCAASGFTFNAFGMHWVRQAPGKCLEWVAFISSGSTSIYYANTVKGRFTISRDNSKNTLYLQMNSLRAEDTAVYYCARDGYPTGGAMDYWGQGTSVTVSSGGGGSGGGGSGGGGSGGGGSDIQMTQSPSSLSASVGDRVTITCKASQDIYNYLSWFQQKPGKAPKPLIYRANILVSGVPSRFSGSGSGQDYTFTISSLQPEDIATYYCLQFDAFPFTFGCGTKLEIKGSDKTHTCPPCPAPELLGGPSVFLFPPKPKDTLMISRTPEVTCVVVDVSHEDPEVKFNWYVDGVEVHNAKTKPREEQYNSTYRVVSVLTVLHQDWLNGKEYKCKVSNKALPAPIEKTISKAKGQPREPRVYTLPPCRDELTKNQVSLTCLVKGFYPSDIAVEWESNGQPENNYKTTPPVLVSDGSFTLYSKLTVDKSRWQQGNVFSCSVMHEALHNHYTQKSLSLSPG
heavy: B1 heavy
light: B1 light
notes: the condition stands under assay; also called AB0192 Lot AB0192-005
mFc-hNKG2D [11]
  Kd: 770 nM and 778 nM and 790 nM
Human CD64
  Kd: 6.1 nM and 5.5 nM and 3.5 nM
  koff: 0.00029 s⁻¹ and 0.00026 s⁻¹ and 0.00018 s⁻¹
  kon: 47000 M⁻¹ s⁻¹ and 52000 M⁻¹ s⁻¹

B4: F3'-1602 TriNKET (other)
chain: B1 chain
heavy: B1 heavy
light: B1 light
notes: CLEC12A scFv-Fc, NKG2D A49MI Fab-Fc, human IgG1 Fc; also called AB0237
[12]
  Kd: 1400 nM
